Measured values from article PMC11602157, “ZNF512B binds RBBP4 via a variant NuRD interaction motif and aggregates chromatin in a NuRD complex-independent manner” (Nucleic Acids Research, 2024).
Residue numbers refer to the chain shown, from its start. Numbers in names are those of the source.

B1: His-ZNF512B: purified recombinant His-ZNF512B protein (protein, UniProt Q96KM6 1-892, looked up)
Zinc finger protein 512B: MTDPFCVGGRRLPGSSKSGPGKDGSRKEVRLPMLHDPPKMGMPVVRGGQTVPGQAPLCFDPGSPASDKTEGKKKGRPKAENQALRDIPLSLMNDWKDEFKAHSRVKCPNSGCWLEFPSIYGLKYHYQRCQGGAISDRLAFPCPFCEAAFTSKTQLEKHRIWNHMDRPLPASKPGPISRPVTISRPVGVSKPIGVSKPVTIGKPVGVSKPIGISKPVSVGRPMPVTKAIPVTRPVPVTKPVTVSRPMPVTKAMPVTKPITVTKSVPVTKPVPVTKPITVTKLVTVTKPVPVTKPVTVSRPIVVSKPVTVSRPIAISRHTPPCKMVLLTRSENKAPRATGRNSGKKRAADSLDTCPIPPKQARPENGEYGPSSMGQSSAFQLSADTSSGSLSPGSRPSGGMEALKAAGPASPPEEDPERTKHRRKQKTPKKFTGEQPSISGTFGLKGLVKAEDKARVHRSKKQEGPGPEDARKKVPAAPITVSKEAPAPVAHPAPGGPEEQWQRAIHERGEAVCPTCNVVTRKTLVGLKKHMEVCQKLQDALKCQHCRKQFKSKAGLNYHTMAEHSAKPSDAEASEGGEQEERERLRKVLKQMGRLRCPQEGCGAAFSSLMGYQYHQRRCGKPPCEVDSPSFPCTHCGKTYRSKAGHDYHVRSEHTAPPPEEPTDKSPEAEDPLGVERTPSGRVRRTSAQVAVFHLQEIAEDELARDWTKRRMKDDLVPETARLNYTRPGLPTLNPQLLEAWKNEVKEKGHVNCPNDCCEAIYSSVSGLKAHLASCSKGAHLAGKYRCLLCPKEFSSESGVKYHILKTHAENWFRTSADPPPKHRSQDSLVPKKEKKKNLAGGKKRGRKPKERTPEEPVAKLPPRRDDWPPGCRDKGARGSTGRKVGVSKAPEK
modifications: His tag
notes: purified recombinant His-ZNF512B protein
B2: ZNF512B: zinc finger protein 512B; GAL-ZNF512B in the reporter assay, GFP-/FLAG-tagged in pull-downs (protein)
chain: B1 Zinc finger protein 512B
modifications: left off: GFP, end not stated, kept
B3: K423A: GAL-ZNF512B with K423A mutation, loss of NuRD binding (protein)
chain: B1 Zinc finger protein 512B with K423A
modifications: left off: GFP, end not stated, kept

Key:
[1] = system: DNA (sequence derived from the mouse H19 promoter); assay: EMSA; assay type: binding; conditions: purified recombinant protein, unmethylated or methylated oligos, 300 ng salmon sperm DNA competitor
Description: Expression and purification of recombinant His-ZNF512B protein was done as described ([32]). Briefly, pFastBac1 vectors were transformed into DH10Bac bacteria and viruses were generated according to the Bac-to-Bac™ Baculovirus Expression System Protocol (Invitrogen). Extracts were prepared 3 days after infection by washing the cells twice with ice cold PBS and incubation on ice for 10 min in hypotonic buffer (10 mM HEPES-KOH pH 7.9, 1.5 mM MgCl2, 10 mM KCl). After brief vortexing and centrifugation, the pellet (nuclei) was incubated for 20 min in hypertonic buffer (20 mM HEPES-KOH pH 7.9, 25% glycerol, 420 mM NaCl, 1.5 mM MgCl2, 0.2 mM EDTA). After centrifugation for 10 min at 16 000 × g the supernatant was stored at −20°C or directly used for electrophoretic mobility shift assays (EMSAs). Alternatively, the supernatant was purified by FPLC using the Äkta Start (Cytiva) via a His-Trap column (71502768) by standard procedures outlined in the instructions of the manufacturer.
EMSAs were performed as originally described ([34]) with the exception that 300 ng of salmon sperm DNA per reaction were used as an unspecific competitor. […]

FLAG-tagged ZNF512B = assay: Oligomerization: GFP-Trap IP and FLAG immunoblot; assay type: binding; conditions: co-transfection of GFP- and FLAG-tagged ZNF512B constructs, HeLaK cells
Description: Preparation of DNase-digested cell extracts and immunoprecipitation was performed using GFP-Trap® Magnetic Particles M-270 (Chromotek) following the manufacturer’s protocol. In brief, cells were incubated for 30 min on ice with RIPA buffer (10 mM Tris/Cl pH 7.5, 150 mM NaCl, 0.5 mM EDTA, 0.1% SDS, 1% Triton™ X-100, 1% deoxycholate) supplemented with DNase I (75 Kunitz U/ml, Thermo Fisher Scientific) and MgCl2 (2.5 mM). After centrifugation at 17 000 × g for 10 min at 4°C, lysate was transferred to a fresh tube and mixed with Dilution buffer (10 mM Tris/Cl pH 7.5, 150 mM NaCl, 0.5 mM EDTA). Lysate was then incubated with GFP-Trap® Magnetic Particles M-270 rotating for 1 h at 4°C. For peptide competition, lysate was incubated with peptide solution rotating for 1 h at 4°C before incubation with beads. After incubation, beads were washed three times with Wash buffer (10 mM Tris/Cl pH 7.5, 150 mM NaCl, 0.05% Nonidet™ P-40 Substitute, 0.5 mM EDTA), and precipitated proteins were eluted by boiling beads for 5 min in 2× SDS-sample buffer. Eluates were compared to input material via semi-dry western blotting. Details on applied antibodies and peptides are listed in the Supplementary Data.

[2] = system: 4xUAS-tk-luc reporter in HEK293T cells; assay: Luciferase reporter assay; assay type: cell-based; conditions: GAL fusion, 72 h, three biological replicates
Description: Per well of a 6-well plate, 1.5 × 10^5 HEK293T cells were seeded and transfected on the next day using 1 μg of 4xUAS-tk-luc reporter plasmid, 0.5 μg GAL expression vector and 0.5 μg pCMV-lacZ vector for normalization. Cells were directly lysed in well after 72 h with 200 μl Lysis buffer (25 mM Tris/Cl pH 7.5, 8 mM MgCl2, 1 mM EDTA, 1% Triton™ X-100, 15% glycerin, 1 mM DTT) for 15 min at RT. Supernatants were used to measure luciferase activity by mixing 100 μl 1:1 with 90 mg/L D-Luciferin/0.8 mM ATP and quantifying emitted light after 5 s incubation with an Orion L plate reader (Titertek-Berthold). Values were normalized to β-galactosidase activity by adding 5 μL supernatant to 900 μl LacZ buffer (50 mM Na2HPO4, 10 mM KCl, 0.1 mM MgSO4, pH 7) and 100 μl 4 g/L OPNG/0.1 M KPO4. When a color change of the mixture occurred, absorbance at 420 nm was measured.

NuRD complex members = assay: lf-qMS after GFP-Trap IP; assay type: binding; conditions: GFP-Trap IP vs GFP
Description: Preparation of Micrococcal nuclease (MNase)-digested nuclear extracts was performed as previously described ([15–17],[32]). Briefly, nuclei were isolated by incubation with PBS containing 0.3% Triton™ X-100 for 10 min at 4°C and washed in PBS, before being resolved in 500 μl freshly prepared Ex100 buffer (10 mM HEPES pH 7.6, 100 mM NaCl, 1.5 mM MgCl2, 0.5 mM EGTA, 10% glycerol, 10 mM β-glycerol phosphate, 1 mM Dithiothreitol (DTT), 2 mM CaCl2). Chromatin was then digested with 1.5 U MNase (sufficient for 4 × 10^7 cells, Sigma-Aldrich) for 20 min at 26°C. Digestion was stopped by adding 10 mM EGTA and transferring the sample to 4°C. […]
For label-free quantitative mass spectrometry (lf-qMS), precipitated proteins were eluted by incubation of beads with Elution Buffer (2 M urea, 50 mM Tris/Cl pH 7.5, 2 mM DTT, 20 μg/ml Trypsin Gold [Promega]) for 30 min at 37°C shaking at 1400 rpm in the dark. […]
After tryptic digest (see MNase IP), peptides were desalted on StageTips ([36]) and analysed by nanoflow liquid chromatography on an EASY-nLC 1000 system (Thermo Fisher Scientific) coupled online to a Q Exactive Plus mass spectrometer (Thermo Fisher Scientific). […]
The raw files were processed with MaxQuant ([37]) (version 1.6.5.0) against a human uniprot database (81194 entries). […] The match between run option and the LFQ quantitation were activated. […]

Row | Molecule | DNA binding [1] | oligomer formation (FLAG-tagged ZNF512B) | repression of luciferase reporter [2] | binding to NuRD complex members by lf-qMS (NuRD complex members)
1 | B1 | DNA-binding protein (Figure 2F), independent of DNA methylation status | – | – | –
2 | B2 | – | able to form oligomers that are strictly dependent on the ZF domains | strong repression effect | NIM-dependent binding of ZNF512B to all known NuRD complex members was observed
3 | B3 | – | – | over 50% | –
